± gives the uncertainty stated by the source.

Results on 140 substances are retold here after the supplement of paper PMC12042874.

A short description of the data set: amyloid nucleation score (Sup35N fusion, yeast selection) (log enrichment); library NNK2; higher = more nucleation; inactive = no reads after selection. The gist of the method:
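The nucleation score, computed with DiMSum, is the log enrichment of output over input reads, centred on the mode score of non-aggregating sequences. Sequences with under 100 input reads were dropped. Reads were generated by Illumina sequencing of plasmid inserts from psi-negative yeast with Sup35N fused to peptides of 20 random codons, induced with 100 μM copper sulfate for 24 hours and grown 7 days at 30°C on medium lacking adenine and uracil.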
Consider KAYPFYTLHVGGRDRVIPDW, for which the amyloid nucleation score entry was “inactive”. With KCCILMLKA the figure was 0.745 ± 0.49; with KCKRLVSKNIRL, -0.342 ± 1; with KCLFES, 0.144 ± 0.77. The result for KCSTVYASGFWLPWTVVPGR reads 0.418 ± 0.26. Substance KDGSPYKYLA showed an amyloid nucleation score of -0.554 ± 0.63.

The substance KDLEFSISLMKVPNIWWHYR had an amyloid nucleation score of 1.04 ± 0.17. For the substance KDLPTSYIYMFDY, the amyloid nucleation score was -1.2 ± 0.78. The result for KDNYNLNTGSSTISGHRWFA reads “inactive”; that for KDSITAWCFVVLSVMTRVEY, -0.733 ± 1.1; that for KDYSGGIRHPVVPSGMISYL, -1.44 ± 1.1. The result for KECVHHDHFYG reads “inactive”; that for KEVCEKTMFMCSWVK, -0.809 ± 1.1. The substance KFASVYWLGLFPLLMPTVVS displayed an amyloid nucleation score of 0.89 ± 0.43.

Take KFCVRVYNYIVDRITSLMKT: the amyloid nucleation score was 3.22 ± 0.067. In turn, KFILCCLFPTYGREFCTSGL came in with an amyloid nucleation score of 8.921 ± 0.068. KFKDHVGLYKPMGSRKFLDW yielded an amyloid nucleation score of -0.28 ± 0.28. With KFLLGSVGTLQSNPTLFHLR the figure was 0.095 ± 0.33; with KFMHRWPVYMVSTGLSLIVW, -0.458 ± 0.41. The result for KFNILPKLWMDICMIYLAVY reads -1.33 ± 0.49; that for KFSGRYWTGIEGVRISVCLH, -0.778 ± 0.56. The result for KFSHQVEILPSGTSIGSCER reads -0.111 ± 0.63; that for KFSKGSPGWWHQGSLCMVAM, 1.51 ± 0.58. With KFSLDF, the amyloid nucleation score was -0.837 ± 0.53. With KFTSCAVNNDIMLLLVRVGF, the amyloid nucleation score was -1.61 ± 0.75. The result for KFWDSDVGVGGHHV reads “inactive”. The result for KFWYYIFCGLCMCYDFSKRR reads 6.42 ± 0.084; that for KGAFANL, -1.63 ± 0.55; that for KGCVDHVFIYGIN, -1.44 ± 0.41. With KGGNIHSRVTYR the figure was -0.669 ± 0.37; with KGLLCTHESMGVYRDSWPCY, -0.067 ± 0.49. Turning to KGQVLWTLGCMSIFVSMTNM, the amyloid nucleation score turned out to be 5.58 ± 0.078. The result for KGSDSYLFIERWCLKMNISL reads “inactive”. In the case of KGTYNDIMLRYACCMAGVKR, the amyloid nucleation score is -0.053 ± 0.49. The result for KGWWGVIRDYREWFTGSRWG reads 0.594 ± 0.47; that for KGYGIHFCFRCMDSRCGVS, 0.97 ± 0.28. With KHCQLLSVSAECDRPGLWKE the figure was 0.75 ± 0.17.

KHLMMDCAKRMQLRNIRDES had an amyloid nucleation score of 0.216 ± 0.2. With KITMDPGLVRIHNFGQTSLV the figure was 0.408 ± 0.62; with KIVWCLVYNRDYYLQYRTIS, -0.625 ± 0.27; with KIYSTSYDNNTSYISCVWSH, 6.708 ± 0.029. With KKAIFWWFWDHDSCL the entry was “inactive”; with KKNSAVHVYF, -1.01 ± 1.1.

KKSHFLKRYNTAYVGRHLVH: the amyloid nucleation score was -0.07 ± 0.53.

The substance KKVFLTFLEFVFNAISGWWV yielded an amyloid nucleation score of -0.67 ± 0.79. With KLFRQQCDS the figure was 0.247 ± 0.8; with KLGLVKMSPYIMFTHVCDGW, -0.217 ± 0.23. With KLIYLGGSSEFGTHFSA the figure was -0.429 ± 0.61; with KLLAVVLFGDGLAFNN, 3.24 ± 0.064.

With KLPFELKSDDFTCFNWANSR, the amyloid nucleation score is -0.097 ± 1.1. For KLQLVTLW, the amyloid nucleation score amounted to 3.66 ± 0.072. For KLRGIPYRF, the amyloid nucleation score result was “inactive”.

On to KLRIVMMNRIFTSNL, for which the amyloid nucleation score was 5.16 ± 0.1. In turn, KLVCRMTGCFWVVFIACPYY yielded an amyloid nucleation score of 0.175 ± 0.35. Turning to KLVLSNSALFRRTFAINPV, the amyloid nucleation score amounted to 0.626 ± 0.8.

KLYLVWPTCGDGCSFGLRAT registered an amyloid nucleation score of -0.194 ± 0.24. The substance KMPWMTCSHVTFTRIHSKIS registered an amyloid nucleation score of -0.57 ± 0.48. Substance KMSELWFVIKPWFWIMGLEK yielded an amyloid nucleation score of -0.403 ± 1.1. The result for KNDLPRKKVL reads 0.128 ± 0.4; that for KNIVVTSPVLMNST, -0.179 ± 0.63. KNKWRSMV came in with an amyloid nucleation score of 0.953 ± 0.18. Substance KNYVYWDLIHRFCLSTMR displayed an amyloid nucleation score of 1.62 ± 0.52. With KPWTYDMVCSRFTSMWFCDY the figure was 0.644 ± 0.38. The result for KRDFPISATSRLCVAFFFIY reads -0.975 ± 0.38; that for KRDLGFRVVLWYLW, -0.942 ± 0.6; that for KRGRDV, -0.292 ± 0.49.

Substance KRKLSKYFLRLKLKCFWVM had an amyloid nucleation score of -0.753 ± 0.48. Consider KRLVEAVKFWWQVRNGLKVR, for which the amyloid nucleation score amounted to 0.518 ± 0.29.

KRQSRAVMVS displayed an amyloid nucleation score of 0.037 ± 0.63. KRSKSR: the amyloid nucleation score result was “inactive”. The result for KRSSGRVFHPRMSRW reads 0.641 ± 0.4; that for KRYLTGSEVIVGWCC, 0.329 ± 0.38; that for KSCFWLRDI, -0.457 ± 0.28. With KSCGNGHISDVIYLRGMLGV the figure was -0.538 ± 0.55; with KSESLLPLNWAHARALIHRA, 1.1 ± 0.36; with KSHHGWSTIRCNRWYIS, “inactive”. With KSPCIVQTTILYNYMAVVIS the figure was 3.83 ± 0.12. KSPNHSDRVQWMKYTFWYTL registered an amyloid nucleation score of -0.003 ± 1.1. KTFFVYIRSNYCV yielded an amyloid nucleation score of -1.24 ± 0.62.

With KTGVGTYIPQWDCNGHEMVS, the amyloid nucleation score is 0.423 ± 0.35. The result for KTISNYVAGN reads “inactive”; that for KTMANI, -0.403 ± 0.37; that for KTQKLLGRAWRNYGYGCCVR, -0.487 ± 1.1. With KTSWFGYSWNDHHSIRHQCS the figure was 0.84 ± 0.43; with KTSWVVYDGFRARDARSWRS, -0.245 ± 0.48. The result for KTYDGGFKRNRDEVGPKPGE reads -0.326 ± 1. In turn, KVEALDVTRGIVPGKSLAVR had an amyloid nucleation score of 0.249 ± 0.55. The result for KVHNLMGESGIKLYYVRFAH reads “inactive”; that for KVIMVLFRFDMSIWGWQTDI, -0.628 ± 0.76; that for KVLRLIRY, 1.25 ± 0.48.

In turn, KVMNNIL gave an amyloid nucleation score of -0.093 ± 0.36. The result for KVNKCIIRQLDLNMPLASRW reads 0.584 ± 0.46. Consider KVQNWMLNTHGFYSLRGFDQ, for which the amyloid nucleation score is -0.857 ± 0.41.

Take KVRLGTLTYICYANSNRLCP: the amyloid nucleation score worked out at 2.37 ± 0.12. The substance KVVITQSRVGTLESVKVFYV gave an amyloid nucleation score of 1.77 ± 0.19. On to KVYINHGFGNFEVCSRWVFE, for which the amyloid nucleation score was -0.055 ± 1.1. The result for KWFGSRFYYLYKPPLFSHLA reads “inactive”; that for KWIYQIFPVMALECKGVLH, 2.85 ± 0.15. With KWLTAHAAYLWSETEVRMVV the figure was 0.673 ± 0.27; with KWNVFGDDGMREARLNLSGV, -0.69 ± 0.74.

Regarding KYERYLNRFSLLLRTAMVHR, the amyloid nucleation score is -0.362 ± 0.29. The result for KYIYVYNSIGVP reads -0.277 ± 1.

KYTGMKYRPTVCLGVEVQLK had an amyloid nucleation score of 3.83 ± 0.062.

With KYVVVYDSVYGFSVSGFSLW, the amyloid nucleation score is 0.777 ± 0.19. In turn, LACLVIFMTVSDMDVLSGLF registered an amyloid nucleation score of -0.39 ± 0.21. LACVKMFSGVFV displayed an amyloid nucleation score of 0.06 ± 0.65. Substance LADTLVSESKYKWLF came in with an amyloid nucleation score of -0.032 ± 1.1. LAFYSFIRYTRLSIEMVAIS returned an amyloid nucleation score of -0.741 ± 0.31. In turn, LAGCSMSGVVEC registered an amyloid nucleation score of 1.13 ± 0.22.

Substance LAGITWISSTVRDVSYMRRR showed an amyloid nucleation score of 2.72 ± 0.1. With LAKRGCVIVCFLTFHYTIRR the figure was -0.348 ± 0.28; with LALSFIMMCPYR, 4.95 ± 0.079. LALSRYFGL displayed an amyloid nucleation score of -0.909 ± 0.54. On to LANKAYYVCLV, for which the amyloid nucleation score was determined as 0.022 ± 0.62. With LANNSERMAAQDEVYSNCRM the figure was -0.506 ± 0.24.

LAPCISNMSRLL returned an amyloid nucleation score of -1.25 ± 0.36. With LAQMQR, the amyloid nucleation score was -0.169 ± 0.8. Regarding LAQWLTRLYAK, the amyloid nucleation score was found to be 1.12 ± 0.4.

With LASTALVLDP, the amyloid nucleation score amounted to 1.14 ± 0.31. The result for LAYCGYIHDLFGGILIKLDG reads -0.081 ± 1.1; that for LCEALRFVIYCKLTSFVPFN, -0.632 ± 0.61; that for LCFYPVTTCKPIFRPLYVLP, 0.562 ± 0.45. LCGAKRFMRVQAFEQNVYSR came in with an amyloid nucleation score of 0.401 ± 0.37. Consider LCGSQFL, for which the amyloid nucleation score came to 0.705 ± 0.66. With LCKFFDTVVSMLGSVCSGNQ the figure was 3.22 ± 0.1; with LCKVCSMITVGSGSGSVYSQ, “inactive”. With LCLEAWERRCI the figure was -0.588 ± 0.17; with LCLIGRYRMSERALRLRWLV, 2.54 ± 0.11. With LCNAKAS the figure was -0.815 ± 0.64. LCNSYYFFDSCVIEPYIPLL: the amyloid nucleation score was 5.646 ± 0.054.

In the case of LCPYYNLWS, the amyloid nucleation score result was “inactive”. LCSWLEMGFIIRFAGIVRLD returned an amyloid nucleation score of -0.292 ± 0.54. For the substance LCVEELMTCVCWVRS, the amyloid nucleation score came to 0.47 ± 0.26. The result for LCVIIMFLIIYYNEEFVWSQ reads “inactive”. LCYHLYTRVITCFLLIDLVC displayed an amyloid nucleation score of -0.27 ± 1.1. The result for LCYPCRACPGTKNALADRLG reads 3.56 ± 0.087; that for LDCIS, -0.647 ± 0.55. The result for LDDPGLK reads 0.76 ± 0.14; that for LDDVNMWFHIGNGRGGGELW, 0.092 ± 1.1; that for LDIYYFKKNSWAFHGSAGYP, 1.87 ± 0.11.
